{
  "source": "patent US20110098440A1",
  "about": "(Novo Nordisk, published 2011)",
  "binders": {"B1": {"name": "A8H, A22K(N^ε-Octadecandioyl-γGlu-[2-(2-{2-[2-(2-aminoethoxy)ethoxy]acetylamino}ethoxy)ethoxy]-acetyl), B29R, desB30 human insulin (ligand)", "chain 1": "GIVEQCCHSICSLYQLENYCNK", "chain 2": "FVNQHLCGSHLVEALYLVCGERGFFYTPR", "modifications": "A22K(N^ε-Octadecandioyl-γGlu-[2-(2-{2-[2-(2-aminoethoxy)ethoxy]acetylamino}ethoxy)ethoxy]-acetyl)", "notes": "also called C18-gGlu-OEG-OEG, A8H, A22K, B29R"}, "B2": {"name": "A14E, A22K(N^ε-[2-(2-[2-(2-[2-(Octadecandioyl-γGlu)amino]ethoxy)ethoxy]acetylamino)ethoxy]ethoxy)-acetyl]), B25H, B29R, desB30 human insulin (ligand)", "chain 1": "GIVEQCCTSICSLEQLENYCNK", "chain 2": "FVNQHLCGSHLVEALYLVCGERGFHYTPR", "modifications": "A22K(N^ε-[2-(2-[2-(2-[2-(Octadecandioyl-γGlu)amino]ethoxy)ethoxy]acetylamino)ethoxy]ethoxy)-acetyl])", "notes": "also called C18-gGlu-OEG-OEG, A14E, A22K, B25H, B29R"}, "B3": {"name": "A14E, A22K(N^ε-Eicosanedioyl-γGlu-(3-(2-{2-[2-(2-aminoethoxy)ethoxy]ethoxy}ethoxy)propionyl)), B25H, B29R, desB30 human insulin (ligand)", "chain 1": "GIVEQCCTSICSLEQLENYCNK", "chain 2": "FVNQHLCGSHLVEALYLVCGERGFHYTPR", "modifications": "A22K(N^ε-Eicosanedioyl-γGlu-(3-(2-{2-[2-(2-aminoethoxy)ethoxy]ethoxy}ethoxy)propionyl))", "notes": "also called C20-gGlu-PEG3, A14E, A22K, B25H, B29R"}, "B4": {"name": "A18L, A22K(N^ε-Octadecandioyl-γGlu-[2-(2-{2-[2-(2-aminoethoxy)ethoxy]acetylamino}ethoxy)ethoxy]-acetyl), B29R, desB30 human insulin (ligand)", "chain 1": "GIVEQCCTSICSLYQLELYCNK", "chain 2": "FVNQHLCGSHLVEALYLVCGERGFFYTPR", "modifications": "A22K(N^ε-Octadecandioyl-γGlu-[2-(2-{2-[2-(2-aminoethoxy)ethoxy]acetylamino}ethoxy)ethoxy]-acetyl)", "notes": "also called C18-gGlu-OEG-OEG, A18L, A22K, B29R"}, "B5": {"name": "A14E, A22K(N^ε-Octadecandioyl-γGlu-(3-[2-(2-{2-[2-(2-{2-[2-(2-aminoethoxy)ethoxy]ethoxy}ethoxy)ethoxy]ethoxy}ethoxy)ethoxy]propionyl)), B25H, B29R, desB30 … (ligand)", "chain 1": "GIVEQCCTSICSLEQLENYCNK", "chain 2": "FVNQHLCGSHLVEALYLVCGERGFHYTPR", "modifications": "A22K(N^ε-Octadecandioyl-γGlu-(3-[2-(2-{2-[2-(2-{2-[2-(2-aminoethoxy)ethoxy]ethoxy}ethoxy)ethoxy]ethoxy}ethoxy)ethoxy]propionyl))", "notes": "also called C18-gGlu-PEG7, A14E, A22K, B25H, B29R"}, "B6": {"name": "A14E, A22K(N^ε-Eicosanedioyl-γGlu-γGlu-(3-[2-(2-{2-[2-(2-{2-[2-(2-aminoethoxy)ethoxy]ethoxy}ethoxy)ethoxy]ethoxy}ethoxy)ethoxy]propionyl)), B25H, B29R, desB30 … (ligand)", "chain 1": "GIVEQCCTSICSLEQLENYCNK", "chain 2": "FVNQHLCGSHLVEALYLVCGERGFHYTPR", "modifications": "A22K(N^ε-Eicosanedioyl-γGlu-γGlu-(3-[2-(2-{2-[2-(2-{2-[2-(2-aminoethoxy)ethoxy]ethoxy}ethoxy)ethoxy]ethoxy}ethoxy)ethoxy]propionyl))", "notes": "also called C20-gGlu-gGlu-PEG7, A14E, A22K, B25H, B29R"}, "B7": {"name": "A14E, A22K(N^ε-Octadecandioyl-γGlu-(3-(2-{2-[2-(2-aminoethoxy)ethoxy]ethoxy}ethoxy)propionyl)-γGlu), B25H, B29R, desB30 human insulin (ligand)", "chain 1": "GIVEQCCTSICSLEQLENYCNK", "chain 2": "FVNQHLCGSHLVEALYLVCGERGFHYTPR", "modifications": "A22K(N^ε-Octadecandioyl-γGlu-(3-(2-{2-[2-(2-aminoethoxy)ethoxy]ethoxy}ethoxy)propionyl)-γGlu)", "notes": "also called C18-gGlu-PEG3-gGlu, A14E, A22K, B25H, B29R"}},
  "data": [
    {"target": "T1, purified recombinant human insulin receptor (IR-A) (human, UniProt P06213-2 28-1370, limits assumed)", "T1 construct": "The receptor was captured on SPA beads through the F12 antibody", "experiment": "SPA competition, displacement of A14Tyr[125I]-human insulin from human insulin receptor, 4.5% HSA; relative to desB30 human insulin = 100%", "experimental": "(§1) The affinity of the acylated insulin analogues of this invention for the human insulin receptor is determined by a SPA assay (Scintillation Proximity Assay) microtiterplate antibody capture assay. […] A total of 100 μl reagent mix is then added to each well in the Packard Optiplate and a dilution series of the insulin derivative is made in the Optiplate from appropriate samples. The samples are then incubated for 16 hours while gently shaken. The phases are the then separated by centrifugation for 1 min and the plates counted in a Topcounter. The binding data were fitted using the nonlinear regression algorithm in the GraphPad Prism 2.01 (GraphPad Software, San Diego, Calif.).", "units": {"IR-A affinity (4.5% HSA)": "%"}, "values": [
      {"binder": "B1", "IR-A affinity (4.5% HSA)": 63},
      {"binder": "B2", "IR-A affinity (4.5% HSA)": 5},
      {"binder": "B3", "IR-A affinity (4.5% HSA)": 5.2},
      {"binder": "B4", "IR-A affinity (4.5% HSA)": 23.6}
    ]},
    {"target": "T1, purified recombinant human insulin …", "experiment": "SPA competition, displacement of A14Tyr[125I]-human insulin from human insulin receptor, 0% HSA; relative to desB30 human insulin = 100%", "experimental": "as §1", "units": {"IR-A affinity (0% HSA)": "%"}, "values": [
      {"binder": "B1", "IR-A affinity (0% HSA)": 417},
      {"binder": "B2", "IR-A affinity (0% HSA)": 22.4},
      {"binder": "B5", "IR-A affinity (0% HSA)": 28},
      {"binder": "B4", "IR-A affinity (0% HSA)": 339},
      {"binder": "B6", "IR-A affinity (0% HSA)": 25},
      {"binder": "B7", "IR-A affinity (0% HSA)": 23}
    ]}
  ]
}
